Consider 2 substances from article PMC7534368.

Assay [1] addresses SARS-CoV-2 spike ectodomain with the wild-type sequence (S-WT), aa 15-1,213, with C-terminal thrombi (SARS-CoV-2 | bacteriophage T4) (UniProt P0DTC2). Put plainly: AUC.
Assay [2] addresses SARS-CoV-2 spike ectodomain, prefusion trimer-stabilized form (S-2P), aa 15-1,213, with C-terminal t (SARS-CoV-2 | bacteriophage T4) (UniProt P0DTC2). Put plainly: cryo-EM structure.

“SARS-CoV-2 spike ectodomain with the wild-type sequence (S-WT), aa 15-1,213, with C-terminal thrombi (from UniProt P0DTC2 15-1213) (domain or fragment)” yielded a stoichiometry N in assay [1] of 3.
Consider “SARS-CoV-2 spike ectodomain, prefusion trimer-stabilized form (S-2P), aa 15-1,213, with C-terminal t (from UniProt P0DTC2 15-1213) (domain or fragment)”, for which the stoichiometry N in assay [2] worked out at 3.
